Assay: yeast display, Sf9 membrane polyspecificity reagent, FACS + sequencing; frameworks hold sequencing errors
Summary of the method: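 Galactose induction of a Saccharomyces cerevisiae BJ5465 synthetic nanobody display library ran 36–48 hours. The cells were then stained for 1 hour at 4 °C with 10% biotinylated, detergent-solubilized Sf9 membrane reagent, pulled down on streptavidin microbeads and FACS-sorted into low and high (top ~1%) gates on expression and reagent-binding fluorescence. Labels for polyreactivity follow the gate of origin.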

| Sequence | polyreactivity (PSR sort gate) |
| --- | --- |
| QVQLVESGGGLVQAGGSLRLSCAASRSIFYSYALGWSRQAPGKEREWVADITITGSTYYADSVKGRFTISRDNAKNTVYLQMKSLKSEDTAVYFCNAVLAPGGYAYWGQGTQVTVSS | low polyreactivity |
| QVQLVESGGGLVQAGGSLRLSCAASRSTFYIYVMGWYRQAPGKERELVAAISWSGGSTYYTDSVKGRFTISRDNAKNTVYLQMNSLNPEDTAVYYCNADAHWSVWSYIIDYDYWGEGTQVTVSS | low polyreactivity |
| QVQLVESGGGLVQAGGSLRLSCAASRSTFYLNAMGWYRQAPGKERELVAAISSGGRTYYADSVKGRFTISRDNAKNTVYLQMNSLKPVDTAVYYCNAVRYLRGAYNYWGQGTQVTVSS | high polyreactivity |
| QVQLVESGGGLVQAGGSLRLSCAASRSTFYYYAMGWYRQAPGKERELVATISWSGDSTYADSVKGRFTISRDNAKNTVYLQMNRLKPEDTAVYYCATSGDWWGFRYDYLGQGTQVTVSS | low polyreactivity |
| QVQLVESGGGLVQAGGSLRLSCAASVFTFGQYTMGWYRQAPGKERELVAAITGSGGNTYYADSVKGRFTISRDNAKNTVYLQMNSLKPEDTAVYYCAVQWTYDQYYDYDYWGQGTQVTVSS | low polyreactivity |
| QVQLVESGGGLVQAGGSLRLSCAASVFTFRGNAMGWYRQAPGKERELVAAITSSDDSTYYADSVKGRFTISRDNAKNTVYLQMNSLKPEDTAVYYCAAVANGYWTYEYWGQGTQVTVSS | low polyreactivity |
| QVQLVESGGGLVQAGGSLRLSCAASVFTIPPYAMGWYRRAPGKERELVARITWSGDRTYYADSVKGRFTISRDNAKNTFYLQINSLKPEDTAVYYCADDSAQYYEMDYWGQGTQVTVSS | high polyreactivity |
| QVQLVESGGGLVQAGGSLRLSCAASVIIYHYYAMGWYRPAPGKERELVAAIDSGGSTYYADSVKGRFTISRDNAKNTVYLQMNSLKPEDTADYYCNAGPSVTSGYDYDYWGHGTQVTVSS | low polyreactivity |
| QVQLVESGGGLVQAGGSLRLSCAASVIIYLDNAMVWYRQAPRKEMEMVADITSSGGSTYYADSVKGRFTISRDNAKNTVSLQMNSLKPEDTAVYYCAATRPSYNDAESDYWGQGTQVTVSS | low polyreactivity |
| QVQLVESGGGLVQAGGSLRLSCAASVITFSYNAMGWYRQAPGKERELVAAISSNSDSTYYADSVKGRFTISRDIAKNTVYLQMNSLKPVDTAVYYCAADTPDAPDYSGFYYWGQGTQVTVSS | low polyreactivity |
| QVQLVESGGGLVQAGGSLRLSCAASVLTFETYAMGWYRQAPGKERELVAAISFSGDSTYYADSVKGRFTISRDNAKNTVYLQMNSLKPEDTAVYYCAAEQYYAWYIVGPDYYYWGQGTQVTVSS | high polyreactivity |
| QVQLVESGGGLVQAGGSLRLSCAASVRIFYRYGMGLYRQAPGKERELVASITRGGSTYYADSVKGRFTISRDNAKNTVYLQMNSLKPEDTAVYYCATKSSAGYDYWGQGTQVTVSS | low polyreactivity |
| QVQLVESGGGLVQAGGSLRLSCAASVRIYPYYDRGWYRQAPGKDRELVASTNYADSVKGRFTISRDNAKNTVYLQMNSLKPEDTAVYYCNKRIYGWGGSRYDYWGQGTQVTVSS | low polyreactivity |
| QVQLVESGGGLVQAGGSLRLSCAASVRIYRPYAMGRYRQAPGKERELVAAISGSGGSTYYADSVKGRFTISRDNAKNTVYLQMNSLKPEDTAVYYCNAAPKWSDYFYPLEYWGQGTQVTVSS | low polyreactivity |
| QVQLVESGGGLVQAGGSLRLSCAASVRTFEPNAMGWYRQAPGKERELVAAISSSDGSTYYADSVKGRFTISRDNAKNTVYLQMNSLKPEDTAVYYCAADAGYLYDWPYNYYYWGQGTQVTVSS | low polyreactivity |
| QVQLVESGGGLVQAGGSLRLSCAASVRTFNFYASGLYRQATRKQRELVAAIRRGGSTNYADSVKGRFTISRDNAKNTVYLQMNSLIREDTAVYYCNKRVWYPYWTVDYWGQGTQVTVSS | low polyreactivity |
| QVQLVESGGGLVQAGGSLRLSCAASVRTFSYYAMGWYRQAPGKERELVASISGGGRTNYADSVKGRFTISRDNAKKTVYLQMNSLKPEDTAVYYCAARYQITRQYKRGYWGQGNQVTVSS | high polyreactivity |
| QVQLVESGGGLVQAGGSLRLSCAASVRTFTPYAMGWYRQAPGKEREFVAAISIVGRKKYADSVKGRFTISRDNAKNTVYLQMNSLKPEDTEVYYCNAQDSRDRKFYWGYTRGHWGLGTQVTVSS | low polyreactivity |
| QVQLVESGGGLVQAGGSLRLSCAASVSIFARYAMGWYRQAPGKERELVAAITSGTSTNYADSVKGRFTISRDNAKNSVYLQMNSLKPEDTAVYYCNARHTWHQTYDYCGQGTQVTVSS | low polyreactivity |
| QVQLVESGGGLVQAGGSLRLSCAASVSIFRVYALGWYRQEPGKERELVAAITNGGNTNYADSVKGRFTISRDNAKNTVYLQMYSLKPVDTAVYYCAATLNRYWFRLYYYLGQGTQVTVSS | high polyreactivity |
| QVQLVESGGGLVQAGGSLRLSCAASVSIFYHYAMGWYRQAPGKESELVAAIDRTGGSTYYADSVKGRFTISRDNAKNTVYLQMNSLKPEDTAVYYCDADWDYADYYGFQYDYWGQGTQVTVSS | low polyreactivity |
| QVQLVESGGGLVQAGGSLRLSCAASVSIFYVYARGCYRQAPGKERELVAAITSSGTTNYADSVKGRFTISRDNAKNTVYLQMNSLKPEDTAVYYCAADPDSGQVPFDYWGQGTHVTVSS | low polyreactivity |

| Sequence | polyreactivity (PSR sort gate) |
| --- | --- |
| QVQLVESGGGLVQAGGSLRLSCAASVSTFANNAMGWYRQAPGKERELVASITTDGSTNYADSVKGRFTISRDNAKNTVYLQMNSLKPEDTAVYYCAADYHTPSSFAPIELYDYWGQGTQVTVSS | low polyreactivity |
| QVQLVESGGGLVQAGGSLRLSCAASVSTFAPNAMGWYRQAPGKEMELVASIRRGGSTHYADSVKGRFTISRDNAKNTVYLQMNSLQPEDTAVYYCAAEFRDVSSNGYDYWGQGTQVTVSS | low polyreactivity |
| QVQLVESGGGLVQAGGSLRLSCAASVSTFDSYVMGWYRQAPGKERELVAAITSGGSTYYADSVKGRFTISRDNAKNTVYLQMNSLKPVDTAVYYCNRDERVGKWGYYWGQGTQVTVSS | low polyreactivity |
| QVQLVESGGGLVQAGGSLRLSCAASVSTFISYAMGWYRQAPGKERELVAAISSSTGRTYYADSVKGRFTISRDNAKNTVYLQLNSLKPEDTAVFYCNAVHRYERDYWGQGTQVTVSS | high polyreactivity |
| QVQLVESGGGLVQAGGSLRLSCAASVSTFWFYAMGWYRQAPGKERELVAVISNSGSTYYADSVKGRFTISRDNAKNTVYLQMNSLKPEDTAVYYCAADVEGWTVESDVYRVGYDYWGQGTQVTVSS | low polyreactivity |
| QVQLVESGGGLVQAGGSLRLSCAASVSTFYGYAMGWYRQAPGKERELVAAITSTVITDYADSVKGRFTISRDNAKNTVYLQMNSLKPEDTAVYYCSADRYDSSQFYYWGQGTQVTVSS | low polyreactivity |
| QVQLVESGGGLVQAGGSLRLSCAASVYGMGWYRQAPGKERELVAAISNGGTTYYADSVKGRFTISRDNAKNTVYLQMNSLKPEDTAVYYCAARSWPGGFIYYYWGQGTQVTVSS | low polyreactivity |
| QVQLVESGGGLVQAGGSLRLSCAASVYTSNYYAMGWYRQAPGKEREFVAAITASSVSTYYADSVKGRFTISRDNAKNTVYVQMNSLKPEDTAVYYCAVVYISYTSWLWVYWLVDFDYWGQGTQVTVSS | low polyreactivity |
| QVQLVESGGGLVQAGGSLRLSCAASYAMGWYRQAPGKERELVATITSGGVSTYYADSVKGRFTISRDNAKNTVYLQMNSLKPEDTAVYYCAATASHSTSADYDYWGQGTQVTVSS | low polyreactivity |
| QVQLVESGGGLVQAGGSLRLSCAATGFIFPLYAMGWYRQAPGKQSELVAAITWRGDTTSYADSVKGRFTISRDNAKNTVYLQMNSLKPVDPAVYYCAADSYRYRPGYGPVLYDYWGQGTQVTVSS | high polyreactivity |
| QVQLVESGGGLVQAGGSLRLSCAATGFTFGRYAMGWYRQAPGKERELVAAITWSGGSTYYADSVKGRFTISRDNAKNTVYLQMNSLKPEDTAVYYCNRLSNNREYDYWGQGTQVTVSS | high polyreactivity |
| QVQLVESGGGLVQAGGSLRLSCAATGGIFDYYAMGWYRQAPGKERALVAAIRGGGSTNYADSVKGRFTISRDNAKNTVYLQMNSLKPEDTAVYYCAKDSPFTSVTVLAPIIYDSWGQGTQVTVSS | low polyreactivity |
| QVQLVESGGGLVQAGGSLRLSCAATGIIFGTYAMGWYLQAPGTERELVAVISWRGGTYADSVKRRFTISRDNAKNTVYLQMNSLKPEDSAVYYCNARTWARLGSYWWIVDSWGQGTQVTVSS | high polyreactivity |
| QVQLVESGGGLVQAGGSLRLSCAATGITFGRNTMGWYRQAPGKERDLVAAIDSGGNTYADSVKGRFTISRDNAKNTVYLQMNSLKPEDTGVFYSAGDGGELSSYGYWGQGTQVTVSS | low polyreactivity |
| QVQLVESGGGLVQAGGSLRLSCAATGRIFNYYAMGWYRQAPGKERELVAAISNGGSTYYADSVKGRFTISRDNAKNTVYLQMNSLKPEDTAVYYCNAAARNGYARRVYYWGQGTQVTVSS | high polyreactivity |
| QVQLVESGGGLVQAGGSLRLSCAATGRIFRYYAMGLYRQAPGNERELVAAIRRGGSTTYADSVKGRFTISRDNAKNTFYLQMNSLKPEDTAVYYCAATQYYRGYDYWGQGSQVTVSS | high polyreactivity |
| QVQLVESGGGLVQAGGSLRLSCAATGRIFRYYTMGWYRQAPGKERELVAAITSSSGSTYYADSVKGRFTISRDNAKNTVYLQMNSLKPEDTAVYYCNAVRYTTQTPNVDYGYWGQGTQVTVSS | high polyreactivity |
| QVQLVESGGGLVQAGGSLRLSCAATGRIFTTYAMGWYRQAPGKERELVAAITSGGGTYYADSVKGRFTISRDNAKNTVYLQMNSLKPEDTAVYYCNADYSADYYWYYYCGQGTQVTVSS | low polyreactivity |
| QVQLVESGGGLVQAGGSLRLSCAATGRIFWVYAMGWYRQAPGKERELVAAINTSVGRTHYADSVKGRFTISRDNAKNTVYLQMNSLKPEDTAVYYCAADVKRYGWEYGYWGQGTQVTVSS | low polyreactivity |
| QVQLVESGGGLVQAGGSLRLSCAATGRIFYYYTMGWYRQAPGKERELVAAISWGGVNTDYADSVKGRFTISRDNAKNTVYLQMNSLKPEDTAVYYCAAGRWSVGTYDYWGQGTQVTVSS | low polyreactivity |
| QVQLVESGGGLVQAGGSLRLSCAATGRILYYYAMVWYRQAPGKEREVVAASTSGGSTYADSVKGRFTISRDNAKNTVYLQMNSQKPEDTAVYYCNADSTVYDTEYAYWGQGTQVTVSS | low polyreactivity |
